Experimental data taken from patent publication US10501748B2, “Methods and compositions for integration of an exogenous sequence within the genome of plants” (Dow AgroSciences LLC, priority 2013, dated 2019).

Test system: endogenous AHAS genes (three homoeologous copies)
Assay: transient assay of ZFN-mediated HR-directed AHAS editing in biolistically transfected scutella of immature zygotic embryos
Assay type: cell-based, Triticum aestivum
Conditions: for Editing Frequency (ppm): HR-directed, scutella
Source text: Donor DNA designs were based on a plasmid DNA vector containing 750-bp homology arms (i.e. sequence identical to the endogenous AHAS gene) flanking each side of the target cleavage site for ZFNs 29732 and 29730. A plasmid DNA vector was designed for each of the three wheat sub-genomes: pDAS000132 (FIG. 3), pDAS000133 (FIG. 4) and pDAS000134 (FIG. 5) were designed to the A-, B- and D-genome, respectively (SEQ ID NO:65, SEQ ID NO:66, and SEQ ID NO:67). Each plasmid DNA vector was designed to introduce an S653N ([…]) mutation as a genomic modification conferring tolerance to imidazolinone class herbicides at the target homoeologous copy of the endogenous AHAS gene by ZFN-mediated HR-directed DNA repair. Two additional plasmid DNA constructs were also designed to target the D-genome. The first plasmid DNA, pDAS000135 (SEQ ID NO: 68) (FIG. 6), was identical to pDAS000134 except that it contained two additional (synonymous) single nucleotide point mutations, one each located at 15-bp upstream and downstream of the S653N mutation.
Seedlings of the donor wheat line were grown in an environment controlled growth room maintained at 18/16° C. (day/night) and a 16/8 hour (day/night) photoperiod with lighting provided at […]. Wheat spikes were collected at 12-14 days post-anthesis and were surface sterilized by soaking for 1 min in 70% (v/v) ethanol. The spikes were threshed and the immature seeds were sterilized for 15 min in 17% (v/v) bleach with gentle shaking, followed by rinsing at least three times with sterile distilled water. The embryos were aseptically isolated from the immature seeds under a dissecting microscope. The embryonic axis was removed using a sharp scalpel and discarded. The scutella were placed into a 9 cm PETRI™ dish containing osmotic MS (E3 maltose) medium, with the uncut scutellum oriented upwards. A total of 20 scutella were plated onto each 9 cm PETRI™ dish. The prepared embryos were pre-cultured in the dark at 26° C. for a minimum of 4 h before transfection using biolistics-mediated DNA delivery.
Gold particles for biolistic-mediated DNA delivery were prepared by adding 40 mg of 0.6 micron colloidal gold particles (BioRad) to 1 mL of sterile water in a 1.5 mL microtube. The gold particles were resuspended by vortexing for 5 min. To prepare sufficient material for 10 bombardments, a 50 μL aliquot of the gold particle suspension was transferred to a 1.5 mL microtube containing 5 μg of DNA resuspended in 5 μL of sterile water. Following thorough mixing by vortexing, 50 μL of 2.5 M CaCl2 and 20 μL of 0.1 M spermidine were added to the microtube, with thorough mixing after the addition of each reagent. The DNA-coated gold particles were pelleted by centrifugation for 1 min at maximum speed in a bench top microfuge. The supernatant was removed and 1 mL of 100% ethanol was added to wash and resuspend the gold particles. The gold particles were pelleted by centrifugation, as described above, and the supernatant discarded. The DNA-coated gold particles were resuspended in 110 μL of 100% ethanol and maintained on ice. Following a brief vortex, 10 μL of the gold particle solution was placed centrally onto a macro-carrier membrane and allowed to air dry.
The PDS-1000/HE PARTICLE GUN DELIVERY SYSTEM™ (BioRad) was used to transfect the scutella of immature zygotic wheat embryos by biolistic-mediated DNA delivery. Delivery of the DNA-coated gold particles was performed using the following settings: gap 2.5 cm, stopping plate aperture 0.8 cm, target distance 6.0 cm, vacuum 91.4-94.8 kPa, vacuum flow rate 5.0 and vent flow rate 4.5. The scutella of immature zygotic wheat embryos were bombarded using a 900 psi rupture disc. Each PETRI™ dish containing 20 scutella was bombarded once. The bombarded scutella were incubated at 26° C. in the dark for 16 h before being transferred onto medium for callus induction. The scutella were cultured on callus induction medium in the dark at 26° C. for 7 d. […]

B1: pDAS000132: plasmid donor DNA, 750-bp homology arms, A-genome, introduces S653N mutation; SEQ ID NO:65 (nucleic acid)
DNA: TGCAAGCAGGTCCAAGATTGTGCACATTGACATTGACCCAGCTGAGATTGGCAAGAACAAGCAGCCACATGTCTCCATTTGTGCAGATGTTAAGCTTGCTTTACAGGGGTTGAATGCTCTATTAAATGGGAGCAAAGCACAACAGGGTCTGGATTTTGGTCCATGGCACAAGGAGTTGGATCAGCAGAAGAGGGAGTTTCCTCTAGGATTCAAGACTTTTGGCGAGGCCATCCCGCCGCAATATGCTATCCAGGTACTGGATGAGCTGACAAAAGGGGAGGCGATCATTGCTACTGGTGTTGGGCAGCACCAGATGTGGGCGGCTCAGTATTACACTTACAAGCGGCCACGGCAGTGGCTGTCTTCGTCTGGTTGGGGGCAATGGGATTTGGGTTACCAGCTGCAGCTGGCGCTGCTGTGGCCAACCCAGGTGTTACAGTTGTTGACATTGATGGAGATGGTAGTTTCCTCATGAACATTCAGGAGTTGGCATTGATCCGTATTGAGAACCTCCCTGTGAAGGTGATGATATTGAACAACCAGCATCTGGGAATGGTGGTGCAATGGGAGGATAGGTTTTACAAGGCCAATCGGGCGCACACATACCTTGGCAACCCAGAAAATGAGAGTGAGATATATCCAGATTTTGTGACGATTGCTAAAGGATTCAACGTTCCGGCAGTTCGTGTGACGAAGAAGAGCGAAGTCACTGCAGCAATCAAGAAGATGCTTGAGACCCCAGGGCCATACTTGTTGGATATCATCGTCCCGCATCAGGAGCACGTGCTGCCTATGATCCCAAATGGTGGTGCTTTCAAGGACATGATCATGGAGGGTGATGGCAGGACCTCGTACTGAAATTTCGACCTACAAGACCTACAAGTGTGACATGCGCAATCAGCATGGTGCCCGCGTGTTGTATCAACTACTAGGGGTTCAACTGTGAACCATGCGTTTTCTAGTTTGCTTGTTTCATTCATATAAGCTTGTGTTACTTAGTTCCGAACCCTGTAGCTTTGTAGTCTATGCTCTCTTTTGTAGGGATGTGCTGTCATAAGATATCATGCAAGTTTCTTGTCCTACATATCAATAATAAGTACTTCCATGGAATAATTCTCAGTTCTGTTTTGAATTTTGCATCTTCTCACAAACAGTGTGCTGGTTCCTTTCTGTTACTTTACATGTCTGCCGTGTCCGGTTATGACATAATGACCGATGGAGGGTGGTCAGCAGGTTTTAGACGGGGAGTTGAAACTTTTTTTTGGGGGGAAGAAATCTGAATACAGTTGGGAGGAAAGATAAAAGCATATACCTTGATTAATTTATTGAGCCCAATATCCAGCCTAATTTATCAAGCAATAGGCAGTGTAGGGTGTTGGC
modifications: pDAS000132
Editing Frequency (ppm) (wheat sub-genome A, ZFN 29732-2A-29730, donor-to-ZFN molar ratio 5:1): 2,353 ppm | Editing Frequency (ppm) (wheat sub-genome A, ZFN 29732-2A-29730, donor-to-ZFN molar ratio 10:1): 1,800 ppm | Editing Frequency (ppm) (wheat sub-genome A, ZFN n/a (donor only), average of three biological replicates): 5 ppm | Editing Frequency (ppm) (wheat sub-genome B, ZFN 29732-2A-29730, ratio 5:1): 42 ppm | Editing Frequency (ppm) (wheat sub-genome B, ZFN 29732-2A-29730, ratio 10:1): 30 ppm | Editing Frequency (ppm) (wheat sub-genome B, ZFN n/a (donor only)): 0 ppm | Editing Frequency (ppm) (wheat sub-genome D, ZFN 29732-2A-29730, ratio 5:1): 110 ppm | Editing Frequency (ppm) (wheat sub-genome D, ZFN 29732-2A-29730, ratio 10:1): 61 ppm | Editing Frequency (ppm) (wheat sub-genome D, ZFN n/a (donor only)): 0 ppm | molecular evidence for ZFN-mediated HR-directed editing in all three homoeologous copies of endogenous AHAS (co-transfected with pDAB109350, scutella (pDAS000131 and pDAS000134 also SEC protoplasts)): strong molecular evidence
